Measured values taken from patent publication US20040106198A1, “Inhibition of peptide cleavage in plants” (LARGE SCALE BIOLOGY CORPORATION, priority 2002, published 2004).

Molecular target: Nicotianalisin (Nicotiana benthamiana subtilisin-like serine protease) (Nicotiana benthamiana)
Experiment: cell-based or functional assay

Chain of Nicotianalisin (Nicotiana benthamiana subtilisin-like serine protease) (Nicotiana benthamiana) (chain, as listed by the source limits assumed): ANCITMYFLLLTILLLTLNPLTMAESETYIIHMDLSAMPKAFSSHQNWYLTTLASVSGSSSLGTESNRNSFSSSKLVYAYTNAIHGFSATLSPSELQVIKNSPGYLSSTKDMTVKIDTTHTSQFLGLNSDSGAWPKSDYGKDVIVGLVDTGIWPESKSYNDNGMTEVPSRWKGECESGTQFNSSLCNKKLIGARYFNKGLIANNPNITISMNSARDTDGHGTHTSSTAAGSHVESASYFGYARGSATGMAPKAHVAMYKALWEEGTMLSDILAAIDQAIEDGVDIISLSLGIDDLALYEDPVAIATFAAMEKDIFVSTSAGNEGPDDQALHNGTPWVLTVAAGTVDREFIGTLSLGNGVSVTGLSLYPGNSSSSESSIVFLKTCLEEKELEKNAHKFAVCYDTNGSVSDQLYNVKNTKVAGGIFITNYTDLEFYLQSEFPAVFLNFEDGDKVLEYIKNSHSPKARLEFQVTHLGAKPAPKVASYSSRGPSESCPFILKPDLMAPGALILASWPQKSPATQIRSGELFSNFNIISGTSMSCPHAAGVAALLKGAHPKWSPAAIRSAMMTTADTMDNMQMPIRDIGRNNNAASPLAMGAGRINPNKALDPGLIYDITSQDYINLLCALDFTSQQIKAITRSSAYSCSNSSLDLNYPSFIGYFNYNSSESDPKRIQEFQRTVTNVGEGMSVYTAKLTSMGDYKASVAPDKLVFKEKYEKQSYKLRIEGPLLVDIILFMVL

Substance | % Inhibition of protease activity in IF (hydrolysis of 0.3 mM N-Suc-AAPL-p-NA after 30 min with inhibitor at 24 C) [%]
Amastatin (peptide) | 5
Chymostatin (peptide) | 100
Cystain | 2
Leupeptin (peptide) | 18
pI-II | 2

Second part, the substance after the results:

% Inhibition of protease activity in IF (hydrolysis of 0.3 mM N-Suc-AAPL-p-NA after 30 min with inhibitor at 24 C) [%] | Substance
77 | Antipain (peptide)
41 | Elastinal (peptide)
6 | Pepstatin A (peptide)
30 | potato protease inhibitor I
